For 167 variants, self-cleavage results are on record in the RNAGym collection of RNA variant scans (doi:10.7554/elife.90254).

B1: OR4K15 (parent)
chain: GUUAACGGUCAUAGGCCAUGGAAACUAGGAGCACCAUUUCGCUGCCAGUGAAGAAAUGAACAAAGAAAAUCUGGGCCAGGCAGGCAUCAAAAGAAAUAGUCUUGCGCUCAACCAGAAAGUCUGUAAUCAUUUUAAGGGUA

The series covers variants of B1. Put plainly: self-cleavage, relative activity (ratio to wild type); higher = more cleavage; in vitro, sequencing; the parent is a self-cleaving ribozyme.
Regarding A24U U100C, the self-cleavage stood at 2.08.

Take C16G U37C: the self-cleavage stood at 1.55.

In the case of A59G G80U, the self-cleavage was 0.26.

For G7A U139C, the self-cleavage came out at 1.82.

Consider U38C U72A, for which the self-cleavage amounted to 0.11.

As for U38C U72C, the self-cleavage was 0.27.

With A11G A91G, the self-cleavage is 0.73.

Consider A18C A22U, for which the self-cleavage is 1.71.

Consider A78G U108C, for which the self-cleavage amounted to 0.01.

With A52G U139C, the self-cleavage was 2.03.

Turning to A68G G80A, the self-cleavage was determined as 0.21.

On to U12A A82U, for which the self-cleavage was 0.3.

Regarding U120A U124C, the self-cleavage is 1.04.

With U12A U49C, the self-cleavage was determined as 1.59.

Consider A95G U100A, for which the self-cleavage is 1.26.

For the variant G21A A125G, the self-cleavage is 0.73.

For the variant A67G A82C, the self-cleavage was found to be 0.13.

Consider A30U U127C, for which the self-cleavage turned out to be 0.71.

As to U57G A129U, the self-cleavage worked out at 1.78.

With U39G A96U, the self-cleavage came to 1.58.

For the variant A68U U70C, the self-cleavage was determined as 0.43.

Regarding A33G A86U, the self-cleavage was 0.87.

For the variant A67C A96U, the self-cleavage stood at 2.39.

Turning to A60G A82C, the self-cleavage was 0.08.

Regarding G31A A86U, the self-cleavage worked out at 0.91.

As to U37G A59G, the self-cleavage turned out to be 0.71.

Regarding A56G G119A, the self-cleavage came to 2.09.

Turning to G28A A114G, the self-cleavage came to 0.35.

A86G U132A: the self-cleavage worked out at 1.2.

With U19A A54U, the self-cleavage is 1.8.

For U39C A90G, the self-cleavage amounted to 0.84.

Consider U87G A140G, for which the self-cleavage amounted to 0.8.

As to C25U U127C, the self-cleavage came out at 0.57.

In the case of G7A U87C, the self-cleavage came out at 1.25.

Turning to C17U U37C, the self-cleavage came to 1.

Regarding G74U A111G, the self-cleavage is 0.04.

Take A55G G115A: the self-cleavage is 0.14.

As to A86G G115A, the self-cleavage was 0.14.

On to G29A A59G, for which the self-cleavage is 1.26.

As for A92G A96G, the self-cleavage was found to be 0.99.

For the variant A91G U127C, the self-cleavage came out at 0.78.

With A5G U43A, the self-cleavage is 1.49.

On to A64U U130C, for which the self-cleavage was 1.12.

As for A47G A64G, the self-cleavage stood at 1.17.

Turning to A90G A140G, the self-cleavage worked out at 0.65.

In the case of C46U U139A, the self-cleavage turned out to be 1.41.

Turning to U87C A114G, the self-cleavage worked out at 0.43.

With A66G G73A, the self-cleavage is 0.15.

Take A4G C10U: the self-cleavage came out at 0.76.

Turning to A94U U97C, the self-cleavage worked out at 1.31.

Consider U57C A60G, for which the self-cleavage amounted to 1.01.

For C16U U43A, the self-cleavage was 0.54.

On to U3C U19C, for which the self-cleavage is 1.88.

In the case of G14C A51G, the self-cleavage was found to be 1.01.

Consider U43C A114C, for which the self-cleavage was determined as 0.03.

As for A11G A30G, the self-cleavage worked out at 1.08.

As for U19C A51G, the self-cleavage stood at 0.51.

For A92G A114C, the self-cleavage was 0.04.

Regarding A23U A52G, the self-cleavage amounted to 1.2.

U3C U130A: the self-cleavage is 1.27.

A5U U108C: the self-cleavage was found to be 0.04.

For A36G U127A, the self-cleavage turned out to be 1.87.

On to A5U U132C, for which the self-cleavage came out at 1.4.

Regarding U2C G106A, the self-cleavage is 0.03.

On to A52G U133A, for which the self-cleavage came out at 2.06.

Turning to A23G A94C, the self-cleavage was 1.14.

Regarding A23G A94G, the self-cleavage was determined as 1.42.

With A30G A86G, the self-cleavage is 1.41.

For the variant C32A U87C, the self-cleavage turned out to be 1.38.

With U97C A118G, the self-cleavage was determined as 0.77.

In the case of A24G C35U, the self-cleavage came out at 1.12.

Take A68C U124C: the self-cleavage was 1.22.

In the case of A63G U131G, the self-cleavage was 1.99.

In the case of G50A U87A, the self-cleavage came out at 1.75.

As to U2A A22G, the self-cleavage turned out to be 1.33.

In the case of A62U A90G, the self-cleavage came to 1.26.

For the variant A125U A126G, the self-cleavage turned out to be 1.04.

On to A67U A94G, for which the self-cleavage turned out to be 1.22.

For U2G U39A, the self-cleavage was determined as 0.87.

With A114G U132A, the self-cleavage stood at 0.7.

A117C G136A: the self-cleavage was determined as 0.78.

Take U38A G83U: the self-cleavage stood at 0.84.

Take U12A U43C: the self-cleavage came to 0.49.

With A27G A63G, the self-cleavage is 1.49.

Take A68G G73U: the self-cleavage is 0.07.

Consider A64C A69U, for which the self-cleavage turned out to be 2.61.

Take C17A G73A: the self-cleavage was 0.16.

On to C6U A125C, for which the self-cleavage was 1.

A59G U127C: the self-cleavage amounted to 0.7.

With A86C A114G, the self-cleavage came to 0.24.

As for U70A U72A, the self-cleavage was found to be 0.24.

Take A33U A129U: the self-cleavage was found to be 1.42.

For A30G C105U, the self-cleavage came to 0.17.

Regarding G15A A36U, the self-cleavage amounted to 1.01.

A51G U72G: the self-cleavage came out at 0.25.

In the case of A114U A134G, the self-cleavage was 0.04.

Regarding U37G A68G, the self-cleavage came to 1.5.

For A4G A18U, the self-cleavage is 1.25.

Turning to A78C C109U, the self-cleavage amounted to 0.19.

Take A89C U103C: the self-cleavage was 0.8.

As for A69U G137A, the self-cleavage stood at 2.13.

C10A A118G: the self-cleavage amounted to 1.99.

Turning to A30C U38C, the self-cleavage was 1.02.

A11G A111G: the self-cleavage is 0.04.

Turning to A110G A135G, the self-cleavage was found to be 0.12.

With A11G U108A, the self-cleavage turned out to be 0.03.

With G106A U131C, the self-cleavage was determined as 0.03.

As for A95G G136U, the self-cleavage is 2.65.

For the variant G7U A60U, the self-cleavage was 2.4.

In the case of A5G U26C, the self-cleavage was determined as 0.6.

Regarding A5U A69G, the self-cleavage came to 0.36.

Turning to A23G U87A, the self-cleavage turned out to be 0.94.

As for G14U C105U, the self-cleavage turned out to be 0.07.

Consider U120C G136A, for which the self-cleavage was 1.65.

Consider A69G U72G, for which the self-cleavage worked out at 0.38.

Take C85A U100C: the self-cleavage worked out at 0.72.

In the case of A59C U122C, the self-cleavage was 1.06.

As to G74U U87A, the self-cleavage amounted to 0.15.

On to A27G U133G, for which the self-cleavage came to 2.02.

As for G74A U122A, the self-cleavage came out at 0.18.

In the case of A62G A67U, the self-cleavage was 1.82.

Turning to A66U U108C, the self-cleavage was found to be 0.02.

Consider G14A U26A, for which the self-cleavage turned out to be 1.2.

As for U19G C105G, the self-cleavage was 0.05.

For the variant A22G G58A, the self-cleavage was determined as 0.55.

For A18G C42G, the self-cleavage came out at 1.02.

For U38C A63U, the self-cleavage is 0.76.

Consider G14A G106A, for which the self-cleavage was 0.02.

In the case of U57C A92G, the self-cleavage was 0.71.

On to G28U A68G, for which the self-cleavage came out at 1.22.

Regarding U3G A51G, the self-cleavage stood at 1.72.

Regarding A55G A90G, the self-cleavage is 0.76.

U43C U102C: the self-cleavage was determined as 2.15.

For A33G U102G, the self-cleavage stood at 0.47.

Regarding A96G U103G, the self-cleavage amounted to 0.03.

G31C U139C: the self-cleavage was 1.53.

For the variant A125G U127A, the self-cleavage came out at 1.11.

Turning to A89C G136A, the self-cleavage was 1.27.

For the variant A62G G73A, the self-cleavage turned out to be 0.15.

Regarding A18U U102C, the self-cleavage turned out to be 0.98.

Take G7U A47G: the self-cleavage stood at 1.17.

In the case of G48C A67G, the self-cleavage is 1.37.

As to A55G G74U, the self-cleavage is 0.1.

For the variant U120G U139A, the self-cleavage was determined as 1.61.

For A30U U108A, the self-cleavage was 0.05.

Regarding A91G A114U, the self-cleavage amounted to 0.03.

Turning to U2C U39G, the self-cleavage was determined as 1.43.

Consider A63U U100A, for which the self-cleavage came to 0.96.

A94G U108C: the self-cleavage came to 0.01.

On to A51G A54U, for which the self-cleavage was determined as 1.4.

A95G A118U: the self-cleavage came to 1.09.

For A23U A140G, the self-cleavage is 1.38.

For the variant A66G G138A, the self-cleavage stood at 1.26.

For A117G U130C, the self-cleavage amounted to 0.39.

Consider A52C U120C, for which the self-cleavage is 0.58.

Turning to U49C A59C, the self-cleavage was 0.9.

Consider U2C A111G, for which the self-cleavage is 0.04.

U43A A135U: the self-cleavage was found to be 2.21.

On to A22G A54C, for which the self-cleavage came to 1.7.

For A52G G138U, the self-cleavage was 2.54.

For G28U A111U, the self-cleavage was determined as 0.3.

Consider U39A U133C, for which the self-cleavage came out at 1.76.

Take A55G A86G: the self-cleavage was 1.17.

For the variant A30G A91G, the self-cleavage turned out to be 0.24.

Regarding G53A A91G, the self-cleavage is 1.6.

For A91G U120A, the self-cleavage stood at 1.33.

On to U37C G41U, for which the self-cleavage was determined as 1.04.
